# Legend:
# Aβ(1-42) fibrils = assay: ELISA binding to Aβ(1-42) fibrils; parameters: species or system human; settings: 250 ng/well, 10% N-biotinylated fibrils on streptavidin plate; scFv-IC16 12 and 23 nM; Penta-His and HRP anti-mouse detection, absorbance 450 nm
# Protocol: 1 mg of Aβ(1-42) or N-terminally/C-terminally biotinylated Aβ(1-42) was dissolved in 1 ml 1,1,1,3,3,3-hexafluorosiopropanol (HFIP) and incubated overnight at room temperature. Afterwards, Aβ(1-42) was mixed in the favored ratio with N-terminally/C-terminally biotinylated Aβ(1-42) and aliquoted. HFIP was evaporated using a SpeedVac (Concentrator 5301, Eppendorf, Germany) at room temperature for 30 min. To evaporate remaining HFIP, the sample was incubated overnight at room temperature with an open lid.
# The preparation of Aβ(1-42) monomers and oligomers was carried out by size exclusion chromatography (SEC) as already described by Johansson et al with minor modifications. 250 µg of Aβ peptide was dissolved in 130 µl SEC buffer (50 mM NaPi, pH 7.4; 150 mM NaCl; 0.6% Tween-20) and briefly centrifuged (1 min, 16 100×g, room temperature) to remove insoluble fibrillar material. 100 µl of the supernatant was applied on a Superdex75 10/300 column (GE Healthcare, UK) connected to an Äkta purifier system (GE Healthcare, UK). The sample was eluted at a flow rate of 0.6 ml per min at room temperature and detected at wavelengths of 214, 250 and 278 nm. […] The concentration of the Aβ preparations was determined using the Micro BCA Protein Assay Kit (Thermo Scientific, Waltham, MA, USA). […] The samples were measured at a wavelength of 570 nm with a Polarstar Optima plate reader (BMG, Ortenberg, Germany). […]
# [1] = test system: Aβ plaques in brain cryosections of Tg2576 mice; assay: Ex vivo staining of plaques in mouse brain slices; settings: 9 or 12 months old Tg2576 mice and wildtype control, 20 µm sections; scFv-IC16 400 nM, 6E10 33 nM, 1-11-3 1:200; fluorescence microscopy
# Protocol: Deep frozen horizontal brain cryosections (20 µm thickness) from 9 or 12 months old Tg2576 mice and the respective wildtype control were dried in ambient air for 15 min, and then fixed in ice-cold 4% (w/v) paraformaldehyde for 20 min. Incubation with 70% formic acid for 5 min was performed to enhance immunoreactivity. Sections were permeabilized with 1% Triton X-100 in TBS for 10 min, followed by blocking with Mouse on mouse (M.O.M.) Basic Kit (Vector Laboratories) in TBS-Triton (1%, v/v) for 30 min. Primary antibodies were diluted in 1% BSA/TBS-Triton (working concentration of ScFv: 400 nM, 6E10∶33 nM, 1-11-3 (Covance, USA) in 1∶200 dilution) and probed on the sections for 1 h, incubating at room temperature. […] For double staining, two secondary antibodies (goat anti mouse-Alexa488 and goat anti rabbit-Alexa-568 were mixed directly (working concentration of goat anti rabbit-Alexa568∶1.300). After 1 min of incubation with 0.5 µg/ml DAPI, the sections were coverslip-mounted with Aqua Poly/Mont (Polysciences Inc, Worrington, PA, USA). Sections were examined under a fluorescence microscope (Leica LMD6000 (Leica, Solms, Germany). Excitation Range: UV; blue; green. Excitation Filter: Bp 420/30; Bp 495/15; Bp 570/20) with camera (Leica DFC 310 FX). Images were processed with LAS software (Leica Application Suite, V.4.0.0) and ImageJ (1.45 s).
substance,measurement,setting,value
"scFv-IC16: single-chain variable fragment (VH-(Gly4Ser)3-VL, His6- and Myc-tag) derived from Aβ binding monoclonal antibody IC16, expressed in E. coli",ELISA binding to Aβ fibrils,Aβ(1-42) fibrils,preferential binding
same,plaque staining in brain cryosections,[1],detect plaques specifically

# Reference: PMC3608532, “Characterization of a Single-Chain Variable Fragment Recognizing a Linear Epitope of Aβ: A Biotechnical Tool for Studies on Alzheimer’s Disease?” (PLoS ONE, 2013)
